# B1: nCoV617 (full-length recombinant human IgG1) (antibody, V domains shown)
# VH: QVQLVESGGGVVQPGRSLRLSCAASGFTFSSYAMHWVRQAPGKGLEWVALISYDGSNKYADSVKGRFTISRDNSKNTLYLQMNSLRAEDTAVYYCARGLGLRFLEWPISSYWGQGTLVTVSS
# VL: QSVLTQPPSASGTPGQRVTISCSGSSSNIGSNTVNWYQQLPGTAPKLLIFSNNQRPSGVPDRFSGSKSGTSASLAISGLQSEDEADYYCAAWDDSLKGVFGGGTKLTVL
# notes: also called MAb nCoV617; NAb nCoV617
# Molecular target: SARS-CoV-2 spike protein receptor-binding domain (residues 319 to 533), wild type (SARS-CoV-2, UniProt P0DTC2)
# Test: SPR
# Conditions: both partners purified
binder,measurement,value
B1,Kd,4.23 nM
